Assay: soluble on expression in E. coli; label from the status in PepcDB or PDB records

Row | Sequence | soluble on expression in E. coli
1 | MGSDKIHHHHHHMYYQLYELHHAALQPARTYADAIRLFYSNPLNPVSSTTWGRSIAAAAEMFERTTRRYGKPGFGITSTVVDGKEVRVQEKEVWSRPFCRLLHFERQLPARRKPDVKLLMVAPMSGHYATLLRGTVEAMLPHADVYITDWIDARMVPLSYGNFDLDDYIDYLIEMFHLLGPDASVMAVCQPSVPVLAAVALMEARGDPNLPSSMTLMGGPIDTRRNPTAVNRLAQEHGIEWFRDNVVMSVPWPNPGFMRPVYPGFLQLSGFMSMNLDRHIVAHEEFFMHLVKGDGDSAEKHREFYDEYLAVMDLTAEFYLQTVDTVFIRHALPKGEMTHRSERVDPASIRSVALLTVEGENDDISGIGQTKAAHDLCVNIPSGKRHHHLQPSVGHYGVFNGSRFRKEILPRIVRFVNENRGA | not soluble
2 | MALTEERVLEALRTVMDPELGKDLVSLGMVDEVRVEGGRVDLLVNLTTPACPLKGQIEADIRRALAPLGAEEVRVRFGGGVRPPERYALPGVKHVVAVASGKGGVGKSTVAANLALALSREGAKVGLLDADLYGPSQAKMFGLEGMRLKVDQDRRILPLEAHGIKVLSIANIVPPGQALAWRGPILHGTLKQFLQDVNWGELDYLVVDLPPGTGDVQLSLSQLTQVSGGVIVTTPQEVALIDAERAADMFRKLQVPVLGVLENMSAFLCPHCGKPTPIFGEGGGRRLAERLKTRFLGEIPLTLALRESGDRGVPVLAQDPEGLEAQAFLKAARELAAALSVQTFLPLPMA | soluble
3 | PKYTIVDKETCIACGACGAAAPDIYDYDEDGIAYVTLDDNQGIVEVPDILIDDMMDAFEGCPTDSIKVADEPFDGDPNKFE | soluble
4 | MGSDKIHHHHHHSDEKYPMPTSIDQNSLSAEAKAGAIKLKWTVPADSNYYYVKVTYTLPEDGKKCMRLASVNSDTMLVDNLLHRYGDINFTLQPCNRAGEASQSCSIMAQALPALKQIKTDRNPITLSAKQLYTDDQESSEGPIANLVDGRNDTYFHMSWSSPTPFPHYIVVDLGEENALSTFLFSYVCRDNNNKDNPKEMDILGSNTFDGKNYDESQTTLLASLSNLPNTKAASYESDIIKAGASYRYLWFKVKSSTSGSNWIALAELGLSKVIVKTYDPETGETTIE | not soluble
5 | MSQVKRANENRETARFIKKHKKQVTNPIDEKNGTSNCIVRVPIALYVSLAPMYLENPLQGVMKQHLNPLVMKYNNKVGGVVLGYEGLKILDADPLSKEDTSEKLIKITPDTPFGFTWCHVNLYVWQPQVGDVLEGYIFIQSASHIGLLIHDAFNASIKKNNIPVDWTFVHNDGNRSLGHWVDSNGEPIDGKLRFTVRNVHTTGRVVSVDGTLIS | soluble
6 | PSRPVRPNNRCFSCNKKVGVMGFKCKCGSTFCGSHRYPEKHECSFDFKEVG | soluble
7 | MGGKMEKITCVGHTALDYIFNVEKFPEPNTSIQIPSARKYYGGAAANTAVGIKKLGVNSELLSCVGYDFKNSGYERYLKNLDINISKLYYSEEEETPKAWIFTDKDNNQITFFLWGAAKHYKELNPPNFNTEIVHIATGDPEFNLKCAKKAYGNNLVSFDPGQDLPQYSKEMLLEIIEHTNFLFMNKHEFERASNLLNFEIDDYLERVDALIVTKGSKGSVIYTKDKKIEIPCIKAGKVIDPTGAGDSYRAGFLSAYVKGYDLEKCGLIGAATASFVVEAKGCQTNLPTWDKVVERLEKHRI | soluble
8 | MGSDKIHHHHHHMDISIGDDSNGAVISIVGSHLDKLNLNGTAILLERYDDSPTHFGSAFLFPYANRVRNGEFTLDGKRYFLPKDDENNSIHGLVLSKKFDLVEKIENSVTMRYIMADECYPSPIEIFITHTVSEGKYTCRVKASNRGLTRAPVSAGFHPYFLYNGRWAIKKPRDTWKLEYDGQFPTGKMDKFLFEEDSFMHEFDNQFFADEDIVVDMGSHMIQIERENMPFFVIYNGKYSGGKSVAIEPMMSAVDAFNNGIGLRIVNPGESIEFAYSVEIRE | not soluble
9 | GSMPTTCGFPNCKFRSRYRGLEDNRHFYRIPKRPLILRQRWLTAIGRTEETVVSQLRICSAHFEGGEKKEGDIPVPDPTVDKQIKIELPPK | soluble
10 | MIELYSNAKLPTEFGLFRIYTFVNDENKDHAVIVRGDPRGKENVPLRIHSECLTGDVLGSLRCDCRDQLIQSLRYLGRQEYGMLIYLRQEGRGIGLLNKIKAYSLQDMGADTVEANLKLGLPVDSRNYSFAAEVLRYFEIKSIYIMTNNPEKIKSLIESGINVKGRIPIFSDPTPYDKFYLETKKTKLGHEIENILEHHHHHH | soluble
11 | MDQTQNTIAGIGEINGSIKTEINAIATVDDSNEKLNQIINSNQKILELLHQLKLTVSSFTPASQLHLLQRLNSLVMELDNMAKLSDKCNIQVPIEVLNLIDDGKNPDEFTKDVLNKNCIAKNQVTKGKSDAFKGLRKHLLEELEQAFPDEVDRYRDIRASYAAEAKRLAQTQSVLPNGDAKVKSEL | soluble
12 | MGSDKIHHHHHHMNKLINRISPETSENRILHAGFSIILMSEEITQTLSGLSSDMIIFILSGSITIYSTKEEKKTIGEQYMIFLRSFENYTYDITLGSKIIIFFFDSLTMNELPYYQHPYGILPQPISKWIELKIVEPLYGFLELVGQYLENNFLNYPLYELKRTELFYLLKKLYRKEELDYFFYLSSTHSAEFERLIAENYIKAKTVTDLAQMIGYGVNSFRMKFKKVFGIPAYEWLMQEKSKRLLVAIANSEDDFKNIIDEFDFSSHSHFYKFCKARFGYSPTELRKKLKSL | not soluble
13 | LNKTLFLGYAFLLTMATTSDKLASRSKLPDGPTGSSEEEEEFLEIPPFNKQYTESQLRAGAGYILEDFNEAQCNTAYQCLLIADQHCRTRKYFLCLASGIPCVSHVWVHDSCHANQLQNYRNYLLPAGYSLEEQRILDWQPRENPFQNLKVLLVSDQQQNFLELWSEILMTGGAASVKQHHSSAHNKDIALGVFDVVVTDPSCPASVLKCAEALQLPVVSQEWVIQCLIVGERIGFKQHPKYKHDYVSH | soluble
14 | MSEQLNADRPKTRRKEPAGRGSASEQKILAAAKELFLADRYDGVNLERIAARAGVSRQTVYNRFGSKETVFREMVRHHWSAFAGPGRDIAECGPDASAEEVLRGFAQSLQRFATETDQIRFAQLVVTESARLPWIADEFYRLGKGPVVVTFADCLDSLVRRGLLRCPDTHLAARQFTGLVQEFLVWPRVMAFEEEVAGQAPPEVVIEEAVLTFLARYAPAADGPGQSV | not soluble
15 | SLLLKQAIVYPITSQKFQGDVLVIGEKIAEVKPSIQPTQDMTVIDARALHLLPGFIDVHTHLGLYDEGTGWAGNDANETSEVSTPHIRSLDGIHPFDIAFQDAVQNGITTVHVMPGSQNIIGGTTCVIKTAGTCIDHMIIQEPAGLKIAFGENPKKVHSNGTKESITRMGIMGLLRESFYEAQHYGHEADFRMLPILKALRREIPVRIHAHRADDISSALRFATEFNLDLRIEHCTEGHFIVEELSKHNLKVSVGPTLTRRSKIELKNKTWDTYHILSKNGVEVSITTDHPYTPIQYLNVCAAVAVREGLDEKTALEGITIFPARNLRLEDRIGSIETGKDADLVLWTHHPFHYLAKPVLTMIDGKIIYKKNKKN | soluble
16 | MGSDKIHHHHHHMSLLVRAAALTNYCEVARAGGLDPLRMMFDAGISPSVLREPDLMIQVDRFGRLLQTSATLSGNESFGLSMAESRLLSNLGPVGMLIRDQATLRDALGMLMRYQSILNGAKSLAVDECGGRVIIREVLIAGSAHQPTRQRVELALGVMVRLIRQLIKPDWQPQRVCFEHPAPRDLSTHQRFFGPNVAFNCDFNGIVCAKSDLDARNPWADPAMARYAQRLIDESAAARQTTMLEDVRRTILLLLPGGRCSVEQVAENLGVVCRTVQRRLAEQGQSFSSVVNDIRVELAMRHVVESDRPFTEVATLLGFSAPSGFSRWYQTQFGCSPKESRAASAAVGERVTETPSPARSSPTVRPLSRG | not soluble
17 | AQAVKEAASSDKPLIVAVTACTTGIAHIYMAEESLIKTGEKMSVNVRVETNGASGVGTPMTAEEINKAVGVIIAADKAVETACFNGKN | not soluble
